Experimental data: patent publication US20020098183A1 (published 2002)

Target: T1, human L-selectin (on human leukocytes) (human, UniProt P14151 39-372)
T1 construct: whole, on cells; also called LECAM-1; Lam-1
T1 sequence (looked up): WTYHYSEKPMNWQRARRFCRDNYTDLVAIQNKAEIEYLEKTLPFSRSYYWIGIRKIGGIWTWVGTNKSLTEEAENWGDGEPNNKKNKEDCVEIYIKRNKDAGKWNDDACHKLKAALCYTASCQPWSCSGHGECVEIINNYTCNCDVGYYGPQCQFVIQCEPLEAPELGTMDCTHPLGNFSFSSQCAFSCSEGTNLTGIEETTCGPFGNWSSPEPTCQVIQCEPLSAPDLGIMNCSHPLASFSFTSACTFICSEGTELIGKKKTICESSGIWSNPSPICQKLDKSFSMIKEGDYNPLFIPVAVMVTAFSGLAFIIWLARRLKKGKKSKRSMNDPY
Assay: binding to leukocytes (e.g. FACS analysis)

B1: HuDreg 55 humanized anti-L-selectin antibody (antibody, human IgG4, kappa, V domains shown)
VH: EVQLVESGGGLVQPGGSLRLSCAASGFTFSTYAMSWVRQAPGKGLEWVASISTGGSTYYPDSVKGRFTISRDNAKNTLYLQMNSLRAEDTAVYYCARDYDGYFDYWGQGTLVTVSS
VL: DIQMTQSPSSLSASVGDRVTITCKASQSVDYDGDSYMNWYQQKPGKAPKLLIYAASNLESGIPSRFSGSGSGTDFTLTISSLQPEDFATYYCQQSNEDPWTFGQGTKVEIKR
  binding result: binds
